The values below are quoted from earlier work in paper PMC6275225.

pKd: −log10 of the molar value.

This series addresses LFA-3 (Homo sapiens) (UniProt P19256).
UniProt P19256, sequence (P19256 29-215): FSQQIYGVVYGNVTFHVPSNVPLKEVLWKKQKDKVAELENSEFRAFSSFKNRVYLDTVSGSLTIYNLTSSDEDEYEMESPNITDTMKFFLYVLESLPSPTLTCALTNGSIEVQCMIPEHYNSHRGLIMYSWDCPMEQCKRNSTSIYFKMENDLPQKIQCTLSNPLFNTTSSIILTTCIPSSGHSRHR

Turning to CD2 (from UniProt P06729), the pKd was 4.82.
